# From patent US20020156112A1, “Endostatin-like angiogenesis inhibition” (priority 2000, published 2002)
# T1: irrelevant FLR-peptide (Homo sapiens, UniProt P15941, R1131P)
# T1 construct: ID No. 2: FLR peptide
# T1 sequence (P15941 with tags, fused parts or gaps R1131P): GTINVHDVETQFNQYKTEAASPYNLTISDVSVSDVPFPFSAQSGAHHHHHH
# B1: angiostatin: human angiostatin, Calbiochem 176700, angiogenesis inhibitor protein (protein)
# chain: YLSECKTGNGKNYRGTMSKTKNGITCQKWSSTSPHRPRFSPATHPSEGLEENYCRNPDNDPQGPWCYTTDPEKRYDYCDILECEEECMHCSGENYDGKISKTMSGLECQAWDSQSPHAHGYIPSKFPNKNLKKNYCRNPDRELRPWCFTTDPNKRWELCDIPRCTTPPPSSGPTYQCLKGTGENYRGNVAVTVSGHTCQHWSAQTPHTHNRTPENFPCKNLDENYCRNPDGKRAPWCHTTNSQVRWEYCKIPSCDSSPVSTEQLAPTAPPELTPVVQDCYHGDGQSYRGTSSTTTTGKKCQSWSSMTPHRHQKTPENYPNAGLTMNYCRNPDADKGPWCFTTDPSVRWEYCNLKKCSGTEA
# B2: endostatin: human recombinant endostatin (Calbiochem 324746), known angiogenesis inhibitor protein, a dimer in its functional form (protein, UniProt P39060 1572-1754, looked up)
# Endostatin: HSHRDFQPVLHLVALNSPLSGGMRGIRGADFQCFQQARAVGLAGTFRAFLSSRLQDLYSIVRRADRAAVPIVNLKDELLFPSWEALFSGSEGPLKPGARIFSFDGKDVLRHPTWPQKSVWHGSDPNGRRLTESYCETWRTEAPSATGQASSLLGGRLLGQSAASCHHAYIVLCIENSFMTASK
# modifications: Endostatin
# Legend:
# [1] = test system: His-tagged GRGDS motif peptide; experiment: NTA-Ni agarose pull-down with SDS PAGE of eluate and flow through (Example 2); format: binding; conditions: 0.1 mg/mL protein; imidazole (250 mM) elution
# Sequence of His-tagged GRGDS motif peptide (as listed by the source): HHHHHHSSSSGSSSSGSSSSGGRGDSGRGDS
# Method: 200 μL NTA-Ni agarose (Qiagen) were washed 2× with 100 μL ddH20, then with wash buffer A, containing 50 mM NaH2PO4, 300 mM NaCl, and 10 mM imidazole at pH 8.0.
# A synthetic peptide, was dissolved in DMSO then diluted in phosphate buffer to a final concentration of 1 mM. 100 μL of this peptide solution was incubated with the NTA-Ni resin for 20 minutes at room temperature to allow binding of the histidine-tagged peptide to the NTA-Ni resin. The resin was then pelleted and the supernatant was removed. The resin was washed in buffer A. The peptide bound resin was then divided into two aliquots. A first aliquot was mixed with 100 μL human recombinant endostatin (0.1 mg/mL in 10 mM sodium phosphate buffer, 100 mM sodium chloride, pH 7.4, diluted from stock endostatin, Calbiochem 324746). A second aliquot was mixed with 100 μL human angiostatin, Calbiochem 176700(0.1 mg/mL in 10 mM sodium phosphate buffer, 100 mM sodium chloride, pH 7.4. The beads and angiogenesis inhibitors were incubated on ice 15-20 minutes to allow binding to the bead-immobilized peptide. The resin was then pelleted. The supernatants were removed and reserved for analysis by SDS PAGE (flow through). The beads were then washed 2× with 10 mM sodium phosphate buffer. The histidine-tagged peptides and any immobilized drug were eluted by the addition of 4 aliquots of an imidazole (250 mM) wash.
# [2] = test system: RGD-peptide-bound colloids; experiment: Colloid/colloid linkage colour-change assay on NTA colloids (Example 7); format: binding; conditions: 100 ul or 50 ul protein; room temperature, after approximately 15 minutes
# Method: (§1) 600 microliters colloids, derivatized with a self-assembled monolayer that presents nitrilo tri-acetic acid, NTA (for the capture of histidine-tagged proteins), was mixed with 60 microliters of 500 micromolar histidine-tagged RGD-motif-containing peptide. 600 microliters of a second set of NTA-Ni presenting colloids was mixed with 60 ul of a 500 uM solution of histidine-tagged GST, an irrelevant protein, as a negative control. Colloids were spun down and resuspended in phosphate buffer to remove residual unbound protein or peptide. Endostatin and Angiostatin, two proteins implicated in angiogenesis and suspected of binding to regions of vitronectin, such as the RGD peptide, were prepared by dialysis into phosphate-buffered saline solution and then 1:10 dilution into PBS from a stock concentration of 1 mg/mL.
# (§2) 400 ul phosphate buffer (pH 7.4), 200 ul either RGD-bound colloids or GST-bound colloids, and either 100 ul endostatin or angiostatin, 50 ul endostatin or angiostatin/50 ul phosphate buffer, or 100 ul phosphate buffer (as a negative control) were added to each well of a crystallization dish. Color change was monitored over time at room temperature. […] The histidine-tagged proteins were then eluted using imidazole, and the samples were analyzed by SDS-PAGE.
# GST-bound colloids = experiment: Colloid/colloid linkage colour-change assay on NTA colloids, negative control protein (Example 7); format: binding; conditions: 100 ul or 50 ul protein; room temperature
# Method: as §1, §2
# resin-immobilized GST = experiment: NTA-Ni agarose resin binding verified by SDS-PAGE, control (Example 7); conditions: imidazole elution
# Method: as §2, with “The color change was more pronounced in the well that contained 100 ul endostatin than in the well that contained 50 ul endostatin/50 ul phosphate buffer. […] The results were verified by gel electrophoresis. The RGD peptide and histidine-tagged GST were bound to a small amount of NTA-Ni agarose resin at saturating concentration. Endostatin was incubated with the resin and allowed to bind to the protein on the resin. The” for “The”
# GRGDS peptide = experiment: Gold colloid colour-change binding assay, RGD peptide colloids (Example 6); conditions: endostatin 0.1 mg/mL; wells A1, A2
# Sequence of GRGDS peptide (as listed by the source): as above
# Method: (§3) 40 μM NTA gold colloids were prepared which presented the His-tagged RGD peptide (Sequence ID No.1, see Table 1). These colloids were mixed with endostatin (0.1 mg /mL) and turned blue, indicating binding of endostatin to the GRGDS peptide (A1, A2, FIG. 6). Control colloids presenting an irrelevant FLR-peptide (Sequence ID #2, see table 1) remained pink (wells A3, A4). At the highest concentration of vitronectin (0.1 mg /ml), the endostatin—GRGDS interaction is disrupted, and the well remains pink (B1). At lower concentrations of vitronectin, the endostatin—GRDS interaction is not affected and the wells turn blue (B2-B5).
# irrelevant FLR-peptide = molecular target: T1, irrelevant FLR-peptide; experiment: Gold colloid colour-change binding assay, control colloids (Example 6); conditions: endostatin 0.1 mg/mL; wells A3, A4
# Method: as §3
# [3] = test system: resin-immobilized RGD peptide; experiment: NTA-Ni agarose resin binding verified by SDS-PAGE (Example 7); conditions: imidazole elution
# Sequence of resin-immobilized RGD peptide (as listed by the source): as above
# Method: as §2, with “The color change was more pronounced in the well that contained 100 ul endostatin than in the well that contained 50 ul endostatin/50 ul phosphate buffer. […] The results were verified by gel electrophoresis. The RGD peptide and histidine-tagged GST were bound to a small amount of NTA-Ni agarose resin at saturating concentration. Endostatin was incubated with the resin and allowed to bind to the protein on the resin. The” for “The”
Molecule,co-elution with GRGDS motif peptide (SDS PAGE) [1],colour change of RGD-peptide-bound colloids [2],colour change of GST-bound colloids (GST-bound colloids),binding to resin-immobilized GST (SDS-PAGE) (resin-immobilized GST),colloid colour (binding to GRGDS peptide) (GRGDS peptide),colloid colour (binding to FLR peptide) (irrelevant FLR-peptide),binding to resin-immobilized RGD peptide (SDS-PAGE) [3]
B1,did not,No color change,No color change,,,,
B2,co-eluted,color change from red to blue,No color change,did not bind,turned blue,remained pink,bound
